Test results: patent US11325945B2, “Peptide based PCSK9 vaccine” (CADILA HEALTHCARE LIMITED, priority 2017, dated 2022)
Non-standard residues stand in square brackets, D forms with d. Primed or numbered codes have the meaning given here. No end group written: not given here. 2‑aminophenyl pentanoic acid = 2-Aminophenyl pentanoic acid; Hyp = O=C(O)[C@@H]1C[C@@H](O)CN1; NMeI = CC[C@H](C)[C@H](NC)C(=O)O; hArg = N=C(N)NCCCC[C@H](N)C(=O)O; Cit = NC(=O)NCCC[C@H](N)C(=O)O; Nle = CCCC[C@H](N)C(=O)O; Aib = CC(C)(N)C(=O)O

tested on: human PCSK9; test: Serum antibody detection by affinity determination against human PCSK9 using SPR assay; type: binding; settings: week 5, in words
Procedure: (§1) Affinity parameters of new peptides for recombinant human PCSK9 were analyzed by surface plasmon resonance (SPR), using a Biacore instrument (Biacore T200, GE Healthcare). SPR experiments were performed at 25° C. with a BIACORE T200 apparatus (GE Healthcare, Uppsala, Sweden).
(§2) Purified recombinant human PCSK9 (His-tagged, BPS Biosciences) diluted to 100-150 μg/mL in 10 mM acetate buffer, pH 5.0, was immobilized on one of the four flow cells of a Series S Sensor Chip CMS to a level of approximately 6000 to 8000 RU (resonance units) by the use of amine-coupling chemistry. The surface was blocked with 1M ethanolamine, pH 8.5. Whereas one flow cell was immobilized as blank for reference subtraction (no PCSK9). 10 mM Hepes (pH 7.4) with 150 mM NaCl was used as running buffer. The rest two flow cells were saved for future use.
100× Stock solutions of NCE (new peptides) were made in 100% DMSO and were diluted to range of concentrations in 10 mM Hepes, pH7.4+150 mM NaCl so that the final conc of DMSO is kept at 1%. Binding/Kinetics studies were conducted by passing various concentrations of NCEs over blank as well as ligand (protein) immobilized surface. Each cycle consisted of a 60 s or 120 s analyte (diluted small molecule drug) injection at flow rate with between 5 to 30 μL/min (the association phase), followed by a dissociation phase with between 60 to 180 s. If required, regeneration was done using a 30 s (15 μL) injection of 10 mM glycine/HCl (pH 1.5) and 20 s or 30 s (10 or 15 μL) injection of 10 mM NaOH. The data were analyzed using the Biacore T200 Evaluation software. All the curves were reference-subtracted. […]
Female BALB/c mice of 12-15 weeks of age issued from animal house and kept for 2-3 acclimatization. […] Serum was separated and serum total cholesterol was measured and immunogenicity or antibody confirmation was done using ELISA for PCSK9 antibody titer, binding of serum antibodies with human PCSK9 using Surface plasmon resonance (SPR) assay and LDLR-PCSK9 interaction inhibition assay.

Substance | antibody response (SPR) as compared to Seq.ID.No. 1
SI-Hyp-WNLERITPC (SI[Hyp]WNLERITPC) [Seq. ID. No. 8] | significantly higher antibody response
SIPWNLE-Cit-ITPC (SIPWNLE[Cit]ITPC) [Seq. ID. No. 12] | significantly higher antibody response

same assay, conditions: week-57, in words

Substance | antibody response (SPR) as compared to Seq.ID.No. 1
SIPWNLE-Cit-ITPC (SIPWNLE[Cit]ITPC) [Seq. ID. No. 12] | significantly higher antibody response

molecular target: T1, recombinant human PCSK9 (Homo sapiens, UniProt Q8NBP7); test: Affinity of new peptides for recombinant human PCSK9 by surface plasmon resonance (Biacore T200); type: binding; settings: peptide 50 μM, SPR, 25° C.
T1 construct: His; purchased BPS Biosciences
T1 sequence (Q8NBP7 153-692): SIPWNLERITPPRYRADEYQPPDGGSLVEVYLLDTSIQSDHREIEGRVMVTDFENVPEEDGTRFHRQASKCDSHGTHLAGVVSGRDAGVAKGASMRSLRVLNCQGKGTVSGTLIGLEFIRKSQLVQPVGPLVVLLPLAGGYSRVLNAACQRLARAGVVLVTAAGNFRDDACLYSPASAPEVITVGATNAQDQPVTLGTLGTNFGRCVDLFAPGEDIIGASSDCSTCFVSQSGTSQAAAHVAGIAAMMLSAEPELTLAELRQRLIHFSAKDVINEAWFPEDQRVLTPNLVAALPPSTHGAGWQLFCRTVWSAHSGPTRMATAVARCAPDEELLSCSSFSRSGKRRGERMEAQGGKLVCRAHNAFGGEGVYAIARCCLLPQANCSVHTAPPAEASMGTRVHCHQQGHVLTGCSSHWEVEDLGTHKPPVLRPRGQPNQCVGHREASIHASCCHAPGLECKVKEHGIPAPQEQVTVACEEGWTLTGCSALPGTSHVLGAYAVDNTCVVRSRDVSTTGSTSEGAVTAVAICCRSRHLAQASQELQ
Procedure: as §1, §2
100× Stock solutions of NCE (new peptides) were made in 100% DMSO and were diluted to range of concentrations in 10 mM Hepes, pH7.4+150 mM NaCl so that the final conc of DMSO is kept at 1%. Binding/Kinetics studies were conducted by passing various concentrations of NCEs over blank as well as ligand (protein) immobilized surface. Each cycle consisted of a 60 s or 120 s analyte (diluted small molecule drug) injection at flow rate with between 5 to 30 μL/min (the association phase), followed by a dissociation phase with between 60 to 180 s. If required, regeneration was done using a 30 s (15 μL) injection of 10 mM glycine/HCl (pH 1.5) and 20 s or 30 s (10 or 15 μL) injection of 10 mM NaOH. The data were analyzed using the Biacore T200 Evaluation software. All the curves were reference-subtracted. Baselines were adjusted to zero for all curves and data were presented as binding RU (Average of 5 s window) 5 s before end of sample injection.
For KD (equilibrium dissociation constant) determinations analyte curves were subtracted from buffer blank and modeled assuming a simple 1:1 interaction to generate the kinetic data.

Substance | Binding - Response Unit(RU)
5 (SIPWNLER[Aib]TPC) [compound 5] | 2.30
10 (SIPWN[Aib]ERITPC) [compound 10] | 3.00
13 (SIPWNLERI[Aib]PC) [compound 13] | 9.75
14 ([Aib]IPWNLERITPC) [compound 14] | 7.10
18 (SIP[2‑aminophenyl pentanoic acid]NLERITPC) [compound 18] | 10.20
19 (SIP[(S)‑2‑amino‑3‑(2′-ethyl-4′-methoxy-(1,1′-biphenyl)-4-yl)propanoic acid]NLERITPC) [compound 19] | 35.15

More lines, now with the values ahead:

Binding - Response Unit(RU) | Substance
7.4 | 1 (SIPWNLERITPC; PCSK9) [compound 1]
13.05 | 4 (SIPWNLER[Nle]TPC) [compound 4]
6.55 | 6 (SIPWNLE[hArg]ITPC) [compound 6]
6.65 | 7 (SIPWN[Nle]ERITPC) [compound 7]
5.70 | 8 (SI[Hyp]WNLERITPC) [compound 8]
3.10 | 12 (SIPWNLE[Cit]ITPC) [compound 12]
11.45 | 15 (S[NMeI]IPWNLERITPC) [compound 15]

same assay, conditions: peptide 100 μM, SPR, 25° C.

Substance | Binding - Response Unit(RU)
5 (SIPWNLER[Aib]TPC) [compound 5] | 7.10
10 (SIPWN[Aib]ERITPC) [compound 10] | 7.50
13 (SIPWNLERI[Aib]PC) [compound 13] | 37.35
14 ([Aib]IPWNLERITPC) [compound 14] | 15.00
18 (SIP[2‑aminophenyl pentanoic acid]NLERITPC) [compound 18] | 17.85
19 (SIP[(S)‑2‑amino‑3‑(2′-ethyl-4′-methoxy-(1,1′-biphenyl)-4-yl)propanoic acid]NLERITPC) [compound 19] | 85.90

The remaining lines, values ahead:

Binding - Response Unit(RU) | Substance
30.00 | 4 (SIPWNLER[Nle]TPC) [compound 4]
17.50 | 6 (SIPWNLE[hArg]ITPC) [compound 6]
16.00 | 7 (SIPWN[Nle]ERITPC) [compound 7]
13.25 | 8 (SI[Hyp]WNLERITPC) [compound 8]
6.70 | 12 (SIPWNLE[Cit]ITPC) [compound 12]
29.85 | 15 (S[NMeI]IPWNLERITPC) [compound 15]

tested on: PCSK9; test: Immunogenicity study in BALB/c mice: anti-PCSK-9 ELISA antibody titers in serum; type: in vivo, mouse; settings: peptide formulations, in words
Procedure: (§3) Female BALB/c mice of 12-15 weeks of age issued from animal house and kept for […]. Mice had access to food and water ad libitum and were kept under a 12 hrs light/dark cycle. On Day-0 (pre-treatment) animals bled and serum was harvested for total cholesterol measurement. Animals were randomized and grouped to various treatments based on their total cholesterol and body weights. On next day of Day-0 (pre-treatment) blood collection animals were immunised with 0.3 ml of vaccine formulations as mentioned Table No. 1 by subcutaneous or intramuscular route. Next booster injection was given on 2 weeks and 4 weeks after first injection and animals were bled for immunogenicity measurement on two weeks thereafter till week 7 and then every four week till 32 week, detailed schedule of blood collection was Day-0 (pre-treatment) from there 5th, 7th, 20th, 24th, 28th, 32nd, 45th and 57th week after first vaccine administration. Serum was separated and serum total cholesterol was measured and immunogenicity or antibody confirmation was done using ELISA for PCSK9 antibody titer, binding of serum antibodies with human PCSK9 using Surface plasmon resonance (SPR) assay and LDLR-PCSK9 interaction inhibition assay.
At specific intervals of time (15 days post immunization with each booster), serum samples were collected from all groups of mice. 96-well ELISA plates (#442402) were pre-coated with PCSK-9 protein 50 ng/well and plate incubated overnight at 2-8° C. Next day, wells were washed to remove unbound protein and blocked in 2% skimmed milk-PB ST for 2 hours, and washed with PBST. Sera samples were diluted 1:20 with 0.2% skimmed milk made in PBST. Appropriate volume of samples and standards was added to each well, and incubated for 1 hour at 37° C. Anti-mouse IgG secondary HRP-labeled antibody was added to each well and incubated at 37° C. for 1 hour, then washed. […] Plates were read at 492 nm on a Spectramax microplate reader. […] By using the negative control value, cut-off value was calculated and the corrected OD's above the cut off value were treated as […]. […]

Substance | antibody titers against human PCSK9 as compared to Seq.ID.No.1
SI-Hyp-WNLERITPC (SI[Hyp]WNLERITPC) [Seq. ID. No. 8] | higher
SIPWN-Nle-ERITPC (SIPWN[Nle]ERITPC) [Seq. ID. No. 7] | higher
SIPWNLE-Cit-ITPC (SIPWNLE[Cit]ITPC) [Seq. ID. No. 12] | higher

tested on: LDLR-PCSK9 interaction; test: LDLR-PCSK9 interaction inhibition assay with serum from vaccine treated animals (PCSK9[Biotinylated]-LDLR Binding Assay Kit); type: biochemical; settings: peptide formulations, week 5, in words
Procedure: as §3
Inhibition of LDLR-PCSK9 interaction by antibody (Ab) in serum from vaccine treated animal were assayed using BPS Bioscience in-vitro PCSK9[Biotinylated]-LDLR Binding Assay Kit (BPS Bioscience, San Diego, Calif., USA) with minor modifications. First, LDLR ectodomain is coated on a 96-well plate and plate was incubated overnight. Next, PCSK9-biotin was diluted in 1×PCSK9 assay buffer to obtain 2.5 ng/μl (50 ng/20 μl) concentration and this master mix, test inhibitor (serum samples from animal studies), inhibitor buffer was added to LDL-R coated plate and incubated at room temperature for 2 hours. Finally, the plate is treated with streptavidin-HRP followed by addition of an HRP substrate to produce chemiluminescence, which was then measured using a chemiluminescence reader according to the manufacturer's instructions. […]

LDLR-PCSK9 interaction inhibition compared with Seq. ID No.1 | Substance
significantly higher | SI-Hyp-WNLERITPC (SI[Hyp]WNLERITPC) [Seq. ID. No. 8]
significantly higher | SIPWN-Nle-ERITPC (SIPWN[Nle]ERITPC) [Seq. ID. No. 7]
significantly higher | SIPWNLE-Cit-ITPC (SIPWNLE[Cit]ITPC) [Seq. ID. No. 12]
